Results published in paper PMC4738263 (Scientific Reports, 2016).

Target: the molecule itself
Experiment: crystal structure; dimeric HT cyt c552 without a His-tag obtained from E. coli by freeze-thaw, purified; sitting-drop vapor diffusion at room temperature; 1.8 Å

B1: Hydrogenobacter thermophilus cytochrome c552, wild type, without a His-tag (holo protein) (natural protein, UniProt P15452 19-98, looked up)
chain: NEQLAKQKGCMACHDLKAKKVGPAYADVAKKYAGRKDAVDYLAGKIKKGGSGVWGSVPMPPQNVTDAEAKQLAQWILSIK
modifications: heme c attached (holo protein)
stoichiometry N: 2
